Assay results taken from IntAct's records for PubMed 25525273.

B1: Krev interaction trapped protein 1 (Homo sapiens), O00522 (parent)
chain: MGNPENIEDAYVAVIRPKNTASLNSREYRAKSYEILLHEVPIEGQKKKRKKVLLETKLQGNSEITQGILDYVVETTKPISPANQGIRGKRVVLMKKFPLDGEKMGREASLFIVPSVVKDNTKYTYTPGCPIFYCLQDIMRVCSESSTHFATLTARMLIALDKWLDERHAQSHFIPALFRPSPLERIKTNVINPAYATESGQTENSLHMGYSALEIKSKMLALEKADTCIYNPLFGSDLQYTNRVDKVVINPYFGLGAPDYSKIQIPKQEKWQRSMSSVTEDKERQWVDDFPLHRSACEGDSELLSRLLSERFSVNQLDSDHWAPIHYACWYGKVEATRILLEKGKCNPNLLNGQLSSPLHFAAGGGHAEIVQILLNHPETDRHITDQQGRSPLNICEENKQNNWEEAAKLLKEAINKPYEKVRIYRMDGSYRSVELKHGNNTTVQQIMEGMRLSQETQQYFTIWICSENLSLQLKPYHKPLQHVRDWPEILAELTNLDPQRETPQLFLRRDVRLPLEVEKQIEDPLAILILFDEARYNLLKGFYTAPDAKLITLASLLLQIVYGNYESKKHKQGFLNEENLKSIVPVTKLKSKAPHWTNRILHEYKNLSTSEGVSKEMHHLQRMFLQNCWEIPTYGAAFFTGQIFTKASPSNHKVIPVYVGVNIKGLHLLNMETKALLISLKYGCFMWQLGDTDTCFQIHSMENKMSFIVHTKQAGLVVKLLMKLNGQLMPTERNS

Variants of: B1
Settings: with ccm2_human CCM2, Q9BSQ5
Chain of ccm2_human CCM2, Q9BSQ5 (Q9BSQ5 whole entry): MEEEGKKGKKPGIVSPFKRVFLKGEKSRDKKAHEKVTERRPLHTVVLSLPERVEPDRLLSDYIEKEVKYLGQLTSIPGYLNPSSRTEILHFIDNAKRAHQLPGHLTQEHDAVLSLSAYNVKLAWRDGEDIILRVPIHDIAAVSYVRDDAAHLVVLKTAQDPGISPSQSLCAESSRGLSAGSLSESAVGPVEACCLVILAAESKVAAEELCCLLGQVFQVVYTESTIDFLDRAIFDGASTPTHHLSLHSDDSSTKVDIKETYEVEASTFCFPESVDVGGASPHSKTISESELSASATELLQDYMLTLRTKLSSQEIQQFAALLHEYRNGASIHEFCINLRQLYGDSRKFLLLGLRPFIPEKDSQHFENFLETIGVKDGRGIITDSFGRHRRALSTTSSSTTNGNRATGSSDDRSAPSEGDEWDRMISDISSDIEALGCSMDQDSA

Row | effect of a mutation on the interaction | Variant
1 | decreasing interaction strength | F234A;Y252A;F253A
2 | with no effect | F234A
3 | with no effect | Y195A
4 | with no effect | Y252A;F253A

Variants of: B1
Settings: with ccm2_human CCM2, Q9BSQ5
Remark: another data set of the same source

Row | effect of a mutation on the interaction | Variant
5 | disrupting interaction strength | V248D
6 | disrupting interaction strength | Y252A;F253A
7 | decreasing interaction strength | V244L
